Assay results reported in the supplement of paper PMC11908140.

B1: library; numbered along this chain (parent)
chain: MRKPRAAVGSGHRKQAASQEGRQKHAKNNSQAKPSACDGLARQPEEVVLQASVSSYHLFRDVAEVTAFRGSLLSWYDQEKRDLPWRRRAEDEMDLDRRAYAVWVSEVMLQQTQVATVINYYTGWMQKWPTLQDLASASLEEVNQLWAGLGYYSRGRRLQEGARKVVEELGGHMPRTAETLQQLLPGVGRYTAGAIASIAFGQATGVVDGNVARVLCRVRAIGADPSSTLVSQQLWGLAQQLVDPARPGDFNQAAMELGATVCTPQRPLCSQCPVESLCRARQRVEQEQLLASGSLSGSPDVEECAPNTGQCHLCLPPSEPWDQTLGVVNFPRKASRKPPREESSATCVLEQPGALGAQILLVQRPNSGLLAGLWEFPSVTWEPSEQLQRKALLQELQRWAGPLPATHLRHLGEVVHTFSHIKLTYQVYGLALEGQTPVTTVPPGARWLTQEEFHTAAVSTAMKKVFRVYQGQQPGTCMGSKRSQVSSPCSRKKPRMGQQVLDNFFRSHISTDAHSLNSAAQ

Variants of: B1
Experiment: 8OG:A repair function score (normalized; synonymous = 0, nonsense = -1) (normalized log-likelihood score); higher = more repair activity (WT-like)
Details: with 8OG:A DNA repair reporter (GFP) in HEK-293 MUTYH KO cells
Procedure, shortened: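 After 72 h, viable mCherry+ cells were split into GFP+ (repair) and GFP− bins in three replicates per tile. These cells were MUTYH knockout HEK-293 cells holding lentiviral MUTYH cDNA NNN codon-scan libraries, kept in 10 pg/ml doxycycline and co-transfected with mCherry plus an 8OG:A GFP repair reporter. Sequencing of tile amplicons gave per-tile Rosace fitness scores, normalized into a repair function score anchored on synonymous and nonsense distributions. Synonymous medians were fixed at 0, nonsense at -1, and variants under 300 counts per million at the start were removed.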
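Further: cells sorted at 72 h after reporter transfection.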

Variant	8OG:A repair function score
MRKPRAAVGSGHRKQAASQEGRQKHAKNNSQAKPSACDGLARQPEEVVLQASVSSYHLFRDVAEVTAFRGSLLSWYDQEKRDLPWRRRAEDEMDLDRRAYAVWVSEVMLQQTQVATVINYSTGWMQKWPTLQDLASASLEEVNQLWAGLGYYSRGRRLQEGARKVVEELGGHMPRTAETLQQLLPGVGRYTAGAIASIAFGQATGVVDGNVARVLCRVRAIGADPSSTLVSQQLWGLAQQLVDPARPGDFNQAAMELGATVCTPQRPLCSQCPVESLCRARQRVEQEQLLASGSLSGSPDVEECAPNTGQCHLCLPPSEPWDQTLGVVNFPRKASRKPPREESSATCVLEQPGALGAQILLVQRPNSGLLAGLWEFPSVTWEPSEQLQRKALLQELQRWAGPLPATHLRHLGEVVHTFSHIKLTYQVYGLALEGQTPVTTVPPGARWLTQEEFHTAAVSTAMKKVFRVYQGQQPGTCMGSKRSQVSSPCSRKKPRMGQQVLDNFFRSHISTDAHSLNSAAQ [Y121S]	-0.866
MRKPRAAVGSGHRKQAASQEGRQKHAKNNSQAKPSACDGLARQPEEVVLQASVSSYHLFRDVAEVTAFRGSLLSWYDQEKRDLPWRRRAEDEMDLDRRAYAVWVSEVMLQQTQVATVINYYTGWMQKWPTLQDLASASLEEVNQLWAGLGYYSRGRRLQEGARKVVEELGGHMPRTAETLQQLLPGVGRYTAGAIASIAFGQATGVVDGNVPRVLCRVRAIGADPSSTLVSQQLWGLAQQLVDPARPGDFNQAAMELGATVCTPQRPLCSQCPVESLCRARQRVEQEQLLASGSLSGSPDVEECAPNTGQCHLCLPPSEPWDQTLGVVNFPRKASRKPPREESSATCVLEQPGALGAQILLVQRPNSGLLAGLWEFPSVTWEPSEQLQRKALLQELQRWAGPLPATHLRHLGEVVHTFSHIKLTYQVYGLALEGQTPVTTVPPGARWLTQEEFHTAAVSTAMKKVFRVYQGQQPGTCMGSKRSQVSSPCSRKKPRMGQQVLDNFFRSHISTDAHSLNSAAQ [A212P]	-0.961
MRKPRAAVGSGHRKQAASQEGRQKHAKNNSQAKPSACDGLARQPEEVVLQASVSSYHLFRDVAEVTAFRGSLLSWYDQEKRDLPWRRRAEDEMDLDRRAYAVWVSEVMLQQTQVATVINYYTGWMQKWPTLQDLASASLEEVNQLWAGLGYYSRGRRLQEGARKVVEELGGHMPRTAETLQQLLPGVGRYTAGAIASIAFGQATGVVDGNVARVLCRVRAIGADPSSTLTSQQLWGLAQQLVDPARPGDFNQAAMELGATVCTPQRPLCSQCPVESLCRARQRVEQEQLLASGSLSGSPDVEECAPNTGQCHLCLPPSEPWDQTLGVVNFPRKASRKPPREESSATCVLEQPGALGAQILLVQRPNSGLLAGLWEFPSVTWEPSEQLQRKALLQELQRWAGPLPATHLRHLGEVVHTFSHIKLTYQVYGLALEGQTPVTTVPPGARWLTQEEFHTAAVSTAMKKVFRVYQGQQPGTCMGSKRSQVSSPCSRKKPRMGQQVLDNFFRSHISTDAHSLNSAAQ [V230T]	-0.281
MRKPRAAVGSGHRKQAASQEGRQKHAKNNSQAKPSACDGLARQPEEVVLQASVSSYHLFRDVAEVTAFRGSLLSGYDQEKRDLPWRRRAEDEMDLDRRAYAVWVSEVMLQQTQVATVINYYTGWMQKWPTLQDLASASLEEVNQLWAGLGYYSRGRRLQEGARKVVEELGGHMPRTAETLQQLLPGVGRYTAGAIASIAFGQATGVVDGNVARVLCRVRAIGADPSSTLVSQQLWGLAQQLVDPARPGDFNQAAMELGATVCTPQRPLCSQCPVESLCRARQRVEQEQLLASGSLSGSPDVEECAPNTGQCHLCLPPSEPWDQTLGVVNFPRKASRKPPREESSATCVLEQPGALGAQILLVQRPNSGLLAGLWEFPSVTWEPSEQLQRKALLQELQRWAGPLPATHLRHLGEVVHTFSHIKLTYQVYGLALEGQTPVTTVPPGARWLTQEEFHTAAVSTAMKKVFRVYQGQQPGTCMGSKRSQVSSPCSRKKPRMGQQVLDNFFRSHISTDAHSLNSAAQ [W75G]	-1.2
MRKPRAAVGSGHRKQAASQEGRQKHAKNNSQAKPSACDGLARQPEEVVLQASVSSYHLFRDVAEVTAFRGSLLSWYDQEKRDLPWRRRAEDEMDLDRRAYAVWVSEVMLQQTQVATVINYYTGWMQKWPTLQDLASASLEEVNQLWAGLGYYSRGRRLQEGARKVVEELGGHMPRTAETLQQLLPGVGRYTAGAIASIAFGQATGVVDGNVARVLCRVRAIGADPSSTLVSQQLWGLAQQLVDPARPGDFNQAAMELGATVCTPQRPLCSQCPVESLCRARQRVEQEQLLASGSLSGSPDVEECAPNTGQCHLCLPPSEPWDQTLGVVNFPRKASRKPPREESSATCVLEQPGALGAQILLVQRPNSGLLAGLWEFPSVTWEPSEQLQRKALLQELQRWAGPLPATHLRHLGEVVHTFSHIKLTYQVYGQALEGQTPVTTVPPGARWLTQEEFHTAAVSTAMKKVFRVYQGQQPGTCMGSKRSQVSSPCSRKKPRMGQQVLDNFFRSHISTDAHSLNSAAQ [L430Q]	-0.561
MRKPRAAVGSGHRKQAASQEGRQKHAKNNSQAKPSACDGLARHPEEVVLQASVSSYHLFRDVAEVTAFRGSLLSWYDQEKRDLPWRRRAEDEMDLDRRAYAVWVSEVMLQQTQVATVINYYTGWMQKWPTLQDLASASLEEVNQLWAGLGYYSRGRRLQEGARKVVEELGGHMPRTAETLQQLLPGVGRYTAGAIASIAFGQATGVVDGNVARVLCRVRAIGADPSSTLVSQQLWGLAQQLVDPARPGDFNQAAMELGATVCTPQRPLCSQCPVESLCRARQRVEQEQLLASGSLSGSPDVEECAPNTGQCHLCLPPSEPWDQTLGVVNFPRKASRKPPREESSATCVLEQPGALGAQILLVQRPNSGLLAGLWEFPSVTWEPSEQLQRKALLQELQRWAGPLPATHLRHLGEVVHTFSHIKLTYQVYGLALEGQTPVTTVPPGARWLTQEEFHTAAVSTAMKKVFRVYQGQQPGTCMGSKRSQVSSPCSRKKPRMGQQVLDNFFRSHISTDAHSLNSAAQ [Q43H]	0.0802
